The nature of the series: yeast display, Sf9 membrane polyspecificity reagent, FACS + sequencing; frameworks hold sequencing errors. In a few lines: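 Nanobodies from a synthetic yeast display library (Saccharomyces cerevisiae BJ5465), induced 36–48 hours with galactose, were stained 1 hour at 4 °C with 10% biotinylated, detergent-solubilized Sf9 membrane reagent, enriched on streptavidin microbeads, then FACS-sorted. Anti-HA (expression) and streptavidin (reagent binding) fluorescence set low and high (top ~1%) gates. Polyreactivity labels come from the gate of origin. Genes were colony-PCR amplified, MiSeq 2 × 250 sequenced and filtered by CDR length.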
For the sequence “QVQLVESGGGLVQAGGSLRLSCAASGIFAYYVMGWYRQAPGKERELVADISRGGSTNYADSVKGRFTISRDNAKNTVYLQMISLKPEDSAVYYCNARSYYPWEGYDYWGQGTQVTVSS”, the “polyreactivity (PSR sort gate)” value was “low polyreactivity”.
With “QVQLVESGGGLVQAGGSLRLSCAASGIFDYYAMGWYRQAPGKERELVAAINSSGGSTYYADSVKGRFTISRDNAKNTVYLQMNSLKPEDTAVYYCAAGRYAYLFNYWGQGTQVTVSS” the entry was “high polyreactivity”; with “QVQLVESGGGLVQAGGSLRLSCAASGIFFIYSMGWYRQAPGKERELVADIDSGGPTYYADSVKGRFTISRDNAKNTVYLQMNSLKPEDTAVYYCAVDYSNVDLYSLLFYESDYWGQGTQVTVSS”, “low polyreactivity”.
With “QVQLVESGGGLVQAGGSLRLSCAASGIFFLYMGWYRQAPGKERELVAAISDSGGTTYYADSVKGRFTISRDNAKNTVYLQMNSLKPEDTAVYYCAAEIENLNWFYWDYLEYDYWGQGTQVTVSS” the entry was “low polyreactivity”; with “QVQLVESGGGLVQAGGSLRLSCAASGIFGWNAMGWYRQAPGKEREFVAGITYSGTRTYYADSVKGRFTISRDNAKNTVYLQMNSLKPEDPAVYYCAATTGHRNYRSYYWGQGTQVTVSS”, “high polyreactivity”.
With “QVQLVESGGGLVQAGGSLRLSCAASGIFGYNARGWYRQAPGKERELVAAITSSGTSTYYADSVKGRFTISRDNAKNTVYLQMNSLKPEDTAVYYCAALHSGTWTGYGYWGQGTQVTVSS” the entry was “low polyreactivity”.
Consider “QVQLVESGGGLVQAGGSLRLSCAASGIFRRYAMGWYRQAPGKERELVATITSGGSTNYADSVKGRFTISRDNAKNTVYLQMNSLKPEDTAVYYCNALYGARRYTRWYTGMDYWGQGTQVTVSS”, for which the “polyreactivity (PSR sort gate)” value is on record as “high polyreactivity”.
Under “QVQLVESGGGLVQAGGSLRLSCAASGIFTRYAMGWYRQAPGKERELVAAISRGGGSTYYADSVKGLFTISRDNAKNTCYLQMNSLKPEDTAVYYCNTYKRPRSPGPKFYYWGEGTQVTVSS” stands “high polyreactivity”; under “QVQLVESGGGLVQAGGSLRLSCAASGIFVDNAMGWYRQAPGKERELVAAITSSTDSTYYADSVKGRFAISRDNAKNTVYLQMNSLKPEDTAVDYCAVARPGGFYFLVHYGYGYWGQGTQVTVSS”, “low polyreactivity”.
With “QVQLVESGGGLVQAGGSLRLSCAASGIICDYNAMGWYRQAPGKERELVAAITSTDNTNYADSVKGRFTISRDNAKNTVYLQMNSLKPEDTAVYSCNTDYWLSVVYAMDYWGQGTQVTVSS” the entry was “low polyreactivity”.
With “QVQLVESGGGLVQAGGSLRLSCAASGIIFANYTMGWYRKAPGKERELVAAISWSGDSTYYADSVKGRFTISRDNAKNTVYLQMNSLKPEDTAVYYCATVNIGYRVWMNYWGQGTQVTVSS”, the “polyreactivity (PSR sort gate)” value was “low polyreactivity”.
Under “QVQLVESGGGLVQAGGSLRLSCAASGIIFAQYTMGWYRQAPGKERELVAAINRNGGSTYYADSVKGRFTISRDNAKNSVYLQMNSLKPEDTAVYYCNADALGFRYDYWGQGTQVTVSS” stands “low polyreactivity”; under “QVQLVESGGGLVQAGGSLRLSCAASGIIFARYAMGWYRQAPGKERELVASINWTGGNTYADSVKGRFTISRDNAKNSVYLQMNSLNPEDTAVYYCARDFSPGSSDPNASISFDHWGQGTQVTVSS”, “low polyreactivity”; under “QVQLVESGGGLVQAGGSLRLSCAASGIIFAWNVRGWYRQAPGKERELVAAITQSGGGTYYADSVKGRFTISRDNAKNTVYLLMYSLKPEDTGFYYCAAVGYQFYRYVWVDEFDSWGQGTQVTVSS”, “low polyreactivity”.
Turning to “QVQLVESGGGLVQAGGSLRLSCAASGIIFAWYVMGWYRQAPGKERELVAAITQSGGSTFYADSVKGRFTISRDNAKNTVYLQMNSLKPEDTAVYYCNTEDFFNVPEMDSWGQGTQVTVSS”, the “polyreactivity (PSR sort gate)” value is “low polyreactivity”.
Under “QVQLVESGGGLVQAGGSLRLSCAASGIIFAYAMGWYRQAPGKERELVAAISGRDGSTYYADSVKGRFTISRDNAKNTVYLQMNSLKPEDTAVYYCNAVRGSYSWQMYYWGQGTQVTVSS” stands “low polyreactivity”; under “QVQLVESGGGLVQAGGSLRLSCAASGIIFAYNVIGWSRPAPGKERELVAAIRWGGGSTYADSVKGRFTISRDNAKNTVYLQMNSLKPEDTAVYYCATRYRSYYAKYGYNYWGQGTQVTVSS”, “high polyreactivity”; under “QVQLVESGGGLVQAGGSLRLSCAASGIIFAYYAMGWYRQAPGKERELVAAITSGGSTHYADSVKGRFTISRDNAKNTVYLKMNSLKPEDTAVYYCAADVSYYASLFDYGGQGTQVTVSS”, “low polyreactivity”.
As for “QVQLVESGGGLVQAGGSLRLSCAASGIIFAYYAMGWYRQAPGKERELVGTNYADSVKGRFTISRDNAKNTVYLQMNSLKPEDTAVYYCAADFLYYSSGGKMDYWGQGTQVTVSS”, the “polyreactivity (PSR sort gate)” value was “low polyreactivity”.
Under “QVQLVESGGGLVQAGGSLRLSCAASGIIFCRYAMGWYRQAPGKERELVATITWRGGSTYYADSVKGRFTISRDNAKNTVYLQMNSLKPEDTAVYYCAADTRQSRSFRARDYWGQGTQVTVSS” stands “low polyreactivity”.
With “QVQLVESGGGLVQAGGSLRLSCAASGIIFDDYALGWYRPAPGKVRELVAAINSNGGTTYYADSVKGRFTISRDNAKNTVYLQMNSLKPEDTAVYYCAARPYRIGRYGYDYDYWGQGTQVTVSS” the entry was “high polyreactivity”; with “QVQLVESGGGLVQAGGSLRLSCAASGIIFDEYAMGWYRQAPGKEMELVAGITIGGSTNYADSVKGRLTISRDNAKNTVYLQMNSLKPEDTAVYYCDYLGQGTQVTVSS”, “low polyreactivity”.
With “QVQLVESGGGLVQAGGSLRLSCAASGIIFDFYAMGWYRQAPGKEWELVAAITVSGGSTYYADSVKGRFTISRDNAKNTVYLQMNSLKPEDTAVYYCAAVGDWYVSYYEMDYWGQGTQVTVSS” the entry was “low polyreactivity”; with “QVQLVESGGGLVQAGGSLRLSCAASGIIFDGNAMGWYRQAPGKERELVAAISSGGSTNYADSVKGRFTISRDNAKNTVYLQMNSLKPEDTAVYYCAARYTGKYEREYIYWGQGTQVTVSS”, “high polyreactivity”.
“QVQLVESGGGLVQAGGSLRLSCAASGIIFDINAMGWYRQAPGKERELVAAITTSVDSTYYADSVKGRFTISRDNAKNTVYLQMNSLKPEDTAVYYCAAGPGDSGDDYWGQGTQVTVSS”: the “polyreactivity (PSR sort gate)” value is on record as “low polyreactivity”.
Under “QVQLVESGGGLVQAGGSLRLSCAASGIIFDRYAMGWYRQAPGKERELVAAITYGGGSTYYADSVKGRFTISRDNAKNTVYLQMNSLKPEDTAVYYCAAVSTWFYQYYYWGQGTQVTVSS” stands “high polyreactivity”; under “QVQLVESGGGLVQAGGSLRLSCAASGIIFDTNAMGWYRQAPGKERELVATITQRGGTTYYADSVKGRFTISRDNAKNTVYLQMNSLKPEDTAVYYCNAGPVRLPYDSWGQGTQVTVSS”, “low polyreactivity”.
Under “QVQLVESGGGLVQAGGSLRLSCAASGIIFDWYAMGWYRQAPGKERELVAAISDSGDTTYYADSVKGRFTISRDNAKNTVYLQMNSLKPEDTAVYYCNARVIGIYGYWGQGTQVTVSS” stands “high polyreactivity”.
Under “QVQLVESGGGLVQAGGSLRLSCAASGIIFDYYAMGWYRPAPGKERELVAAINSGSGSTYYADSVKGRFTISRDNAKNTVYLQMNSLKPEDTAVYYCAADGLSATLTWYSYDYWGQGTQVTVSS” stands “low polyreactivity”.
For the sequence “QVQLVESGGGLVQAGGSLRLSCAASGIIFEGYAMGWYRQAPGKERELVATITSGGITYYADSVKGRFTISRDNAKNTVYLQMNSLKPEDTAVYYCAADNEDIGSEDSDYGYDYWGQGTQVTVSS”, the “polyreactivity (PSR sort gate)” value was “low polyreactivity”.

For the origin of these results see the nanobody polyreactivity screen of Harvey et al. (2022).
